Measurements taken from publication PMC6956818, “Activation of JNK and p38 MAPK Mediated by ZDHHC17 Drives Glioblastoma Multiforme Development and Malignant Progression” (Theranostics, 2020).

What was measured:
ZDHHC17 = target: T1, ZDHHC17 (Homo sapiens, UniProt Q8IUH5); assay: ex vivo kinase assay of ZDHHC17-activated MAP2K4 with JNK2 substrate (western blot); supported by co-IP disruption in U118MG cells and ZDHHC17 mutants; no direct binding measurement; format: biochemical
T1 construct: purified ZDHHC17 (50 ng) with recombinant MAP2K4; with MAP2K4

[1] = target: Myc-tagged ZDHHC17 ANK (1-7); assay: co-immunoprecipitation, quantified immunoblot; details: HEK293 cell lysates; parent: est. 1.0; read off a plot

T1 sequence (Q8IUH5 whole entry): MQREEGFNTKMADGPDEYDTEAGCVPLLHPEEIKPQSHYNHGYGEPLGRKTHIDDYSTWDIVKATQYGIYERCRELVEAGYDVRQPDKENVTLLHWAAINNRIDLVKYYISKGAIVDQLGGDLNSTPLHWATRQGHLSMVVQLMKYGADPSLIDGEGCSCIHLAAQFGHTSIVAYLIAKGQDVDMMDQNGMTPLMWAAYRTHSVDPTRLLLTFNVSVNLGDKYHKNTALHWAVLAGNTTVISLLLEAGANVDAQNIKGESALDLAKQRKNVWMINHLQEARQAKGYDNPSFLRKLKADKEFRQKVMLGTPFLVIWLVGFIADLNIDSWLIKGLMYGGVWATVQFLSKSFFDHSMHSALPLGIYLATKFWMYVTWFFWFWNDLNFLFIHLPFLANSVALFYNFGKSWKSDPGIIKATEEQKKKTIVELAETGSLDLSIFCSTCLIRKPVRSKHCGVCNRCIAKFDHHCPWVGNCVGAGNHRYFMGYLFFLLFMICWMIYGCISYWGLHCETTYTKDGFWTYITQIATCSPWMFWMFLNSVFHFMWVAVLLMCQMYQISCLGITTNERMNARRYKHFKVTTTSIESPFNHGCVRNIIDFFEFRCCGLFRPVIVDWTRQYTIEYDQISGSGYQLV
T1 sequence (P45985 2-399 partner): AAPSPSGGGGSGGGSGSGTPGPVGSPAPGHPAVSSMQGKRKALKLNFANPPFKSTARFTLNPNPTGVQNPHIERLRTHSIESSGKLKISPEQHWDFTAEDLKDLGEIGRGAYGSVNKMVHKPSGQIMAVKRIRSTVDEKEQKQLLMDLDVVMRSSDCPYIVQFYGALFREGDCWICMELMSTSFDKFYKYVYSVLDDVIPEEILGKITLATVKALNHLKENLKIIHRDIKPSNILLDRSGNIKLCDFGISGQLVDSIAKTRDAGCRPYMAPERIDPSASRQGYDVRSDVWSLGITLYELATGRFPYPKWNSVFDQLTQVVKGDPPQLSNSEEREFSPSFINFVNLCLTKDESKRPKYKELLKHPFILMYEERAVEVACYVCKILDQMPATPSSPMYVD

Molecule | IC50 (ZDHHC17) [nM] | ratio to parent [1]
O=c1c(-c2ccc(O)cc2)coc2cc(O)cc(O)c12 [genistein] | 800 | –
FLAG-tagged MAP2K4 protein kinase c (PKc) domain fragment E221G | – | 0.85
FLAG-tagged MAP2K4 protein kinase c (PKc) domain fragment M153G | – | 0.5
FLAG-tagged MAP2K4 protein kinase c (PKc) domain fragment N222G | – | 0.35
FLAG-tagged MAP2K4 protein kinase c (PKc) domain fragment R154G | – | 0.73
FLAG-tagged MAP2K4 protein kinase c (PKc) domain fragment S80G | – | 0.83
FLAG-tagged MAP2K4 protein kinase c (PKc) domain fragment W95G | – | 0.47
